According to US20040086863A1 (published 2004):

Experiments:
[1] = biological target: T1, HA-tagged IRS-1 PH domain mutant PH^W106A (rat, UniProt P35570 3-133); test: GST pull-down from COS-1 lysates (500 µg), anti-HA western blot
T1 construct: range 3-133; Expressed transiently in COS-1 cells; The residue limits are not restated for this mutant; not shown: HA tag
T1 sequence (looked up): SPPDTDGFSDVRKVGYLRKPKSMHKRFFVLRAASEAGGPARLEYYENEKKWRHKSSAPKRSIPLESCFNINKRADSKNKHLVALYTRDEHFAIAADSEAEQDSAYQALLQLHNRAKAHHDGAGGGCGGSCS

[2] = biological target: T2, HA-tagged PH domain of mSos1 (residues 448-577) (mouse, UniProt Q62245 448-577); test: GST pull-down from yeast lysates, anti-HA western blot
T2 construct: range 448-577; Expressed in L40 yeast; The species is read from the printed prefix in 'mSos1'; also called SOS1 PH domain; not shown: HA tag
T2 sequence (looked up): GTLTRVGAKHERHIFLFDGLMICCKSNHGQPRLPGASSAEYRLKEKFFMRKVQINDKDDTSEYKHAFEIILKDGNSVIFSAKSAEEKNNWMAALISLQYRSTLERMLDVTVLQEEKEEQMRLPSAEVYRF

[3] = biological target: T3, HA-tagged PH domain of mouse Ect-2 (residues 495-621) (mouse, UniProt Q07139 670-796); test: as above
T3 construct: range 670-796; Expressed in L40 yeast; also called ECT-2 PH domain; not shown: HA tag
T3 sequence (looked up): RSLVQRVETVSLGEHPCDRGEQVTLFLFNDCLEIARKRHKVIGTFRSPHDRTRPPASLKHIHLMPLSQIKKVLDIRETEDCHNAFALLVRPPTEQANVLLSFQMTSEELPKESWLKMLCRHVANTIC

[4] = biological target: T4, HA-tagged PH domain of human RasGAP (residues 464-603) (human, UniProt P20936 464-603); test: as above
T4 construct: range 464-603; Expressed in L40 yeast; also called Ras-GAP (GAP) PH domain; not shown: HA tag
T4 sequence (looked up): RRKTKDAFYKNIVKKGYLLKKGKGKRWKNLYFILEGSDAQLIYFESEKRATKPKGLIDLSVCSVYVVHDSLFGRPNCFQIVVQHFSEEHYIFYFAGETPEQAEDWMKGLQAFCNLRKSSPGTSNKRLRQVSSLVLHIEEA

Measured: binding result

B1: GST-PHIP fusion protein containing PHIP residues 8-209 (PBR) isolated from the yeast clone VP1.32 (other)
chain: VGELTENGLTLEEWLPSAWITDTLPRRCPFVPQMGDEVYYFRQGHEAYVEMARKNKIYSINPKKQPWHKMELREQELMKIVGIKYEVGLPTLCCLKLAFLDPDTGKLTGGSFTMKYHDMPDVIDFLVLRQQFDDAKYRRWNIGDRFRSVIDDAWWFGTIESQEPLQPEYPDSLFQCYNVCWDNGDTEKMSPWDMELIPNNAV
notes: Bacterially expressed and immobilized for pull-downs; also called GST-PHIP (PBR); not shown: glutathione S-transferase encoded by the pGEX-3X vector
no binding: [1] | [2] | [3] | [4]
